In EP0877803B1:

How the values were obtained:
[1] = target: OB protein; assay: BIACORE; OB protein immobilized, conditioned medium of 293 cells expressing the receptor
[2] = target: OB protein; assay: BIACORE; OB protein immobilized, conditioned medium of CHO cells expressing the receptor

## recombinant soluble human OB receptor (leader + extracellular domain, Seq. ID No. 10)
[1]
  BIACORE read-out: 191
[2]
  BIACORE read-out: 151

## recombinant soluble human OB receptor with a C-terminal FLAG-tag (Seq. ID No. 12)
[1]
  BIACORE read-out: 172
